# Measured values published in patent EP2922560B1 (Biotechnologicky Ustav AV CR, v.v.i., dated 2017).
# T1: native human IL-23 receptor on the surface of cultured human cells (K-562, THP-1, Jurkat) and primary human … (human, UniProt Q5VWK5 24-629)
# T1 sequence (looked up): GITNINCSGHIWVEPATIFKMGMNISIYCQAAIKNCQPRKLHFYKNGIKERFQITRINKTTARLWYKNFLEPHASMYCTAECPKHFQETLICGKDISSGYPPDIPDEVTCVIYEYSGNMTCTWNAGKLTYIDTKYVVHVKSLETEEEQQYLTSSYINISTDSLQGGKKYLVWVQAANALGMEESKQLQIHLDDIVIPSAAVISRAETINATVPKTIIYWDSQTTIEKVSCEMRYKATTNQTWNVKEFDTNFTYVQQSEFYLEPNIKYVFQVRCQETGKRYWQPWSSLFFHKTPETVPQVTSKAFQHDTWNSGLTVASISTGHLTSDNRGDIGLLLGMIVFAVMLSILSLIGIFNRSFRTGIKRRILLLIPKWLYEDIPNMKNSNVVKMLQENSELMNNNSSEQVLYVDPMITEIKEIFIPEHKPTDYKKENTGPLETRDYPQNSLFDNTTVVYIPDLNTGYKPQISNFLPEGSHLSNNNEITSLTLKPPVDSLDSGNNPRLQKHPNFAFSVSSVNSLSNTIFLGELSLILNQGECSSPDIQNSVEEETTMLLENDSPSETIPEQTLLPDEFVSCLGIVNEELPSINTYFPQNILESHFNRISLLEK
# T2: H-exIL-23R, N-terminally His6-tagged extracellular domain of human IL-23 receptor (residues 24 to 350) (human, UniProt Q5VWK5 24-350)
# T2 construct: range 24-350; also called recombinant extracellular IL-23 receptor; not shown: N-terminal His6 tag
# T2 sequence (looked up): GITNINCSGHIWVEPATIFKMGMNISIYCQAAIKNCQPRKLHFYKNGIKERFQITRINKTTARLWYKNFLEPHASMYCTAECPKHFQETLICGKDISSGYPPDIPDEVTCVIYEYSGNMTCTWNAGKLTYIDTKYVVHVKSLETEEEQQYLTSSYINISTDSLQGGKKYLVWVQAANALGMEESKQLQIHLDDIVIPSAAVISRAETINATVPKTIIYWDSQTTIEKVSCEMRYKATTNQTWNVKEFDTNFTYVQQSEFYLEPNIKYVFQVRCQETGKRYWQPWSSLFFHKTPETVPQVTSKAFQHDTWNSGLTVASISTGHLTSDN
# Assays:
# [1] = biological target: T1, native human IL-23 receptor on the …; assay: cell-based or functional assay
# [2] = biological target: T3, recombinant human IL-23R-IgG chimera (R&D Systems) (human, UniProt Q5VWK5 24-353, glycosylated); assay: SPR, REX125-TolA-AVI immobilized, IL-23R-IgG chimera flowed, sodium acetate buffer pH 5.0, 25°C; more complex interaction mode
# T3 construct: bought; soluble, glycosylated, secreted by an NS0-derived mouse myeloma cell line; also called IL-23R-IgG receptor chimera
# [3] = biological target: T3, recombinant human IL-23R-IgG chimera …; assay: SPR, REX009-TolA-AVI immobilized, IL-23R-IgG chimera 20-200 nM flowed, sodium acetate buffer pH 5.0, 25°C, 1:1 model, global fit
# [4] = biological target: T2, H-exIL-23R, N-terminally His6-tagged …; assay: ELISA, immobilized exIL-23R (Figure 1 legend)
# [5] = biological target: T1, native human IL-23 receptor on the …; assay: flow cytometry on THP-1 and K-562 cells, 10 µg/ml DH-p19, anti-p19 mAb and Cy5 anti-mouse IgG
# [6] = biological target: T2, H-exIL-23R, N-terminally His6-tagged …; assay: ELISA, immobilized H-exIL-23R; confirmed in the reversed setup
"Th-17+ cell expansion (IL-17-producing cells) in PBMC suspensions after 3 days, normalized to IL-23 only = 1 [1]","Th-17+ cell expansion in separated T-cell samples after 3 days, normalized to IL-23 only = 1 [1]",Binder,other results
0.42 normalized cell count (IL-23 only = 1),0.65 normalized cell count (IL-23 only = 1),"His6-REX125-TolA-AVI (designed binder, in vivo biotinylated at the AviTag (BirA), also called REX-TolA-AVI; not shown: N-terminal His6 tag) LAEAKVLANRELDKYGVSDHYKNWINPARRVRPVKWLIDAILAALPQKQAEEAAAKAAADAKAKAEADAKAAEEAAKKAAADAKKKAEAEAAKAAAEAQKKAEAAAAALKKKAEAAEAAAAEARKKAATEAAEKAKAEAEKKAAAEKAAADKKAAAEKAAADKKAAEKAAAEKAAADKKAAAEKAAADKKAAAAKAAAEKAAAAKAAAEADDIFGELSSGKNAPKTGGGAKGNNASPAGSGNTKNNGASGADINNYAGQIKSAIESKFYDASSYAGKTCTLRIKLAPDGMLLDIKPEGGDPALCQAALAAAKLAKIPKPPSQAVYEVFKNAPLDFKPGLNDIFEAQKIEWHE",Kd [2]: ~1 nM
0.62 normalized cell count (IL-23 only = 1),0.8 normalized cell count (IL-23 only = 1),"His6-REX009-TolA-AVI (designed binder, in vivo biotinylated at the AviTag (BirA), also called REX-TolA-AVI; not shown: N-terminal His6 tag) LAEAKVLANRELDKYGVSDYYKNRINPACHVLSVKSNIDWILASLPQKQAEEAAAKAAADAKAKAEADAKAAEEAAKKAAADAKKKAEAEAAKAAAEAQKKAEAAAAALKKKAEAAEAAAAEARKKAATEAAEKAKAEAEKKAAAEKAAADKKAAAEKAAADKKAAEKAAAEKAAADKKAAAEKAAADKKAAAAKAAAEKAAAAKAAAEADDIFGELSSGKNAPKTGGGAKGNNASPAGSGNTKNNGASGADINNYAGQIKSAIESKFYDASSYAGKTCTLRIKLAPDGMLLDIKPEGGDPALCQAALAAAKLAKIPKPPSQAVYEVFKNAPLDFKPGLNDIFEAQKIEWHE",Kd [3]: 1.3 nM
0.55 normalized cell count (IL-23 only = 1),0.69 normalized cell count (IL-23 only = 1),"His6-REX115-TolA-AVI (designed binder, not shown: small tags and cut ends, in vivo biotinylated at the AviTag (BirA)) LAEAKVLANRELDKYGVSDVYKNTINIAIPVRVVKRVIDWILAVLPQKQAEEAAAKAAADAKAKAEADAKAAEEAAKKAAADAKKKAEAEAAKAAAEAQKKAEAAAAALKKKAEAAEAAAAEARKKAATEAAEKAKAEAEKKAAAEKAAADKKAAAEKAAADKKAAEKAAAEKAAADKKAAAEKAAADKKAAAAKAAAEKAAAAKAAAEADDIFGELSSGKNAPKTGGGAKGNNASPAGSGNTKNNGASGADINNYAGQIKSAIESKFYDASSYAGKTCTLRIKLAPDGMLLDIKPEGGDPALCQAALAAAKLAKIPKPPSQAVYEVFKNAPLDFKPGLNDIFEAQKIEWHE",–
–,–,"DH-MBP-p19, double His6-maltose-binding protein-p19 fusion with C-terminal 40 aa prolongation (ligand, human, 69 kDa, soluble, E. coli BL21(DE3), Ni-NTA purified; also called soluble p19; p19-MBP fusion protein; not shown: N-terminal double His6 tag; followed by TEV site and cloning-site residues that are not pri) RAVPGGSSPAWTQCQQLSQKLCTLAWSAHPLVGHMDLREEGDEETTNDVPHIQCGDGCDPQGLRDNSQFCLQRIHQGLIFYEKLLGSDIFTGEPSLLPDSPVGQLHASLLGLSQLLQPEGHHWETQQIPSLSPSQPWQRLLLRFKILRSLQAFVAVAARVFAHGAATLSPLEKKTCTSRASSTTTTTTEIRLLTKPERKLSWLLPPLSNN",binding result [4]: binds
–,–,"DH-p19, mature p19 subunit of human IL-23 with N-terminal double-His6-TEV tag (ligand, UniProt Q9NPF7 20-189, looked up, mature; not shown: N-terminal double-His6-TEV purification tag) RAVPGGSSPAWTQCQQLSQKLCTLAWSAHPLVGHMDLREEGDEETTNDVPHIQCGDGCDPQGLRDNSQFCLQRIHQGLIFYEKLLGSDIFTGEPSLLPDSPVGQLHASLLGLSQLLQPEGHHWETQQIPSLSPSQPWQRLLLRFKILRSLQAFVAVAARVFAHGAATLSP",binding result [5]: binds; binding result [6]: binds
